Test: soluble on expression in E. coli; label from the status in PepcDB or PDB records

Sequence | soluble on expression in E. coli
TKTTTQGAKSGVFDTVDEAVQAAVIAQNCYKEKSLEERRNVVKAIREALYPEIETIATRAVAETGMGNVTDKILKNTLAIEKTPGVEDLYTEVATGDNGMTLYELSPYGVIGAVAPSTNPTETLICNSIGMLAAGNAVFYSPHPGAKNISLWLIEKLNTIVRDSCGIDNLIVTVAKPSIQAAQEMMNHPKVPLLVITGGPGVVLQAMQSGKKVIGAGAGNPPSIVDETANIEKAAADIVDGASFDHNILCIAE | not soluble
MKNTLLKLGVCVSLLGITPFVSTISSVQAERKVEHKVIKNETGTISISQLNKNVWVHTELGYFNGEAVPSNGLILNTSKGLVLVDSSWDDKLTKELIEMAEKKFKKSVTDVIITHAHADRIGGIKTLKERGIKAHSTTLTAELAKKNGYEEPLGDLQAITKLKFGNMKVETFYPGKGHTEDNIVVWLPQYNMLVGGCLVKSASAKDLGNITDAYVNEWSTSIENVLKRYENINFVVPGHGEVGDKGLLLHTLDLLK | not soluble
MTENQNGKVDPVAIRELISQGIPMKRKESEIKRSQSEEQCVESECPNDEPMSKDFSRVSRRERRKSDKGDYESLFICRNTLKNRKTIYIAKELQDTLAEIVMSMRNRDMTIGIYVENIILHHLETYKDEINRLAEMKFRKLL | not soluble
GPGSMTGLTVPRGEYTNVVVHHRMVGVSAFDDQFNCDWNFELYGVAERIKEHHGGAISDGFRMWLNRVEPGFIVRNFKQSLREAFGLTPPSALLMTSEEDIPHHEVTVYYDFEPAALRFPLLNIRLGE | soluble
MKAMPIDDPIDGYVAELSRALHGPRRAKRDLIAEVRDGLIDAAEAYQAAGLDRPEAERRAVAEFGTVGEIAPGLQEELAAATGQRLGALLFLSAPRSPGT | not soluble
MSLITDLFKRRIHQMEEKKKKNIGFNIIKSDPTDGHGGFGGGSLSLDNVSPVFVDVEAGDAHVDIGAMHARSTVEKGIKFLTNQEDVPNGKPYWLVWVTIDRKQEGPYYAGVTACFMTVDREIRRGYKLLPEHVNRLDKSIKRHIIVDHMDDKSKGILADFLKNHDMGMWERAEDQLKKDLASSEGHHHHHH | soluble
MLSALLIAKRYSSKEDTMPHLFPDLPYAYDALEPYIDTKTMEVHYSKHHRTYYDKFLSAIKGTEHEDRPLSEIFARVSTLPAAVRNHGGGYYNHIVYWNCMKPNAGGEPQGELAAEIERQFGSFAQFKEAFSQAAVNTFGSGFVWLIVQQGQLSITSTSNQDNPLMDVVAVRGEPILALDVWEHAYYIRYQNRRPEYIDAWWNVVNWEAVSENYAIALTQAA | not soluble
MGSSHHHHHHGGTGENLYFQGGSGASTANASVDGSCPAMRDAADEALWAKLDEVQKLLANRSDAKELFTKYTVLRSVVGEVKPVFADSVRTRVKVFCEEPSFAAPEECDDFEPVSLHVVAYLNYKLFMEEMKELMVQARLLKSIGMEGSGLRFQRREQNIVAPGNEPRTGSSSKPSAQVSMHKPSYRPATLIPVGTLRLRRVSKASGAGKLTEVVAKIERVCVVKSARCFDVGRTLMRAAEKIARDAFHVRWALTYAQLSSKDFYTKAGYTPKDGRACMDLHMPHVVMVKCLVDASM | not soluble
MGSDKIHHHHHHMQASFMRMTDKRSPGKPLHPHGVLRPLVFKGRGALSNHDGRFDHLQHADIDDGWHNLDQDLAPLPTEVLIDNSRSIINWNNSPDVPFDRSINPYRGCEHGCIYCFARPTHTYLGLSAGLDFESRILVKPDAARLLRQELSKQHYRCAPIAMGTNTDPYQPLEKQHQLTRQILQVLAEFRHPVSIVTKAAMVERDIDILAPMASQGLVQVFISITTLSNQVSRTLEPRAAAPQRRLDTIRRLHQAGIPTGVMTAPVIPVLTDPELEHILAAASEAGASSAGYVLLRLPLEVAPLFEEWLQHHYPLKASHVMSIIRQSRDGKTNHTDFHARMRGNGLFAEMIRQRFRLACRKLGLNQRSMEMDTSLFRPPGKPEQLGLF | not soluble
MFIREEEQMKRMIITIGRQSGSSGRKVGELLAERLSLPLYGKAELQKIAEGTDDYEEVQAFYEEEPVNSLLYAIAMSQFEQEVGRIPFQRIRELASKESCIIIGRCAGHIFREDPEAVRVFIHADPKIRVQRIMEREGLSETKAKKFLEDTDSRRASFHKYYTKQEWGLAQDYELCLDSGVLGIEGTVEVLTEYLRFRGFLGNE | not soluble
MQFDNIDSALMALKNGETIIVVDDENRENEGDLVAVTEWMNDNTINFMAKEARGLICAPVSKDIAQRLDLVQMVDDNSDIFGTQFTVSIDHVDTTTGISAYERTLTAKKLIDPSSEAKDFNRPGHLFPLVAQDKGVLARNGHTEAAVDLAKLTGAKPAGVICEIMNDDGTMAKGQDLQKFKEKHQLKMITIDDLIEYRKKLEPEIEFKAKVKMPTDFGTFDMYGFKATYTDEEIVVLTKGAIRQHENVRLHSACLTGDIFHSQRCDCGAQLESSMKYINEHGGMIIYLPQEGRGIGLLNKLRAYELIEQGYDTVTANLALGFDEDLRDYHIAAQILKYFNIEHINLLSNNPSKFEGLKQYGIDIAERIEVIVPETVHNHDYMETKKIKMGHLIMAGDPLEHHHHHH | not soluble
MNGYQITFFTQQDRHHAGKPLADWLMHLAAEMGLRGATLIPGSEGMGHDKRFHSVHFFELSDQLLEVVMVVSEEEADQLFARLRAEGVRLFYVKVAAEFGIMD | not soluble
EEYSKAELVVREYVASEGREFFISFEIPEYDALVGFVRLRFPKEPFIEVLRDAALIRELHVYGRAVPIGQSSDAFQHRGFGERLLKEAEEIAKEEYDRIAVISGVGVRDYYRKLGYRLRQGYMVKKL | not soluble
MMRTWWLCERTFRARIYVMARERIPEMTINCARERNSTFTSVPTRTWLSSTISAEYVGRNHAHTTPVPANNKDTITTIAEYHCTE | not soluble
MARQLRAEQTRATIIGAAADLFDRRGYESTTLSEIVAHAGVTKGALYFHFAAKEDLAHAILEIQSRTSRRLAKDLDGRGYSSLEALMRLTFGMARLCVQGPVLRAGLRLATAGVPVRPPLPHPFTEWREIATSRLLDAVRQSDVHQDIDVDSVAHTLVCSVVGTRVVGGTLEPAGREPRRLAEMWYILIRGMVPVTRRARYVTLAARLEQETGTA | soluble
DIHPYSVSYSWDKQVEDEDHMEVFPAGSSFPSTKLITLNRTGDFSMAASYTDITQLPPNTPEQIANWEITGVQLPEGQDSVPVKLKLRCDPSGLHTIEEAYTIEDIEVEEPIPLPEDAPEDAEQEFKKVTKTVKKDDLTIVAHTFGLDAKKLNELIEKENEMLAQDKLVAETEDRKNTLE | not soluble
MKGHCHCGAVRWQSDGKVAWSCYCHCADCRRNCAAPVTAFFGLPHESVTWSGDAPRIYRSTDRVERLFCGTCGTQMAYRNADDRVNIHLYTATLEDPSALPPRFHVFHTARLPWLDLQDDLPRFDRTAG | not soluble
GPGSMASFDMLREDILDVFNVFDEEGTGSISMQELTRAIYTITGTRISRSDLRSLVQAVQEEMKEEAHARKTPLGVDLPPRANSLETSISPNADGENDAVDSSLFVAVVLKTLNRHTYEQELLFTFHLLEDKNYPGFITKDSLKKAAAEMEEHLTDQEVNEMFDKLVTGISSSAVDFTTFTSVLEAAKRMDD | soluble
MGSDKIHHHHHHMYDLIGVGIGPMNLGLSALAHPTPLRTLFFDESEQFSWHPGMMIKDSMMQTSFISDLVTLADPTSPFTYLNYLRSLNRLHTFYFYEKLLISRQEYNAYLKWVSTQLDDLHFSTRVIDIQDTGDSYEVLVEEVATGKRTTYETRNVVLGTGSKPSIPGSFDKNVIHNTQYVMEKEAILQQDKVSIVGSGQSAAEIFLDLLTSDRPETFELEWISRSTIFETLETGKLGEEIFSPSYVRYFNSLPLATRQEAVAKFTRSQNGISPETLQAIYEHLYDLSPEEQQRVKIRANLEVDQISYDSDFTITMRHTELNEQRTSKTGAVVAATGFVPSLPRFINRLDIEFEGEQQAWKVDANYRISRTVSANHHLYATTNLELSHGPAADNLGMSVSRNQLILNDVAGKELYPVEQHATFTTFD | not soluble
MSLEKKTANDVVTLARAQDRLTTLEYIEAIFEDFLEFHGDRYFADDLAVVGGVATLQGKPVTVVGIQKGRNLPENIERNFGSPNPEGYRKALRLMKQAEKFNRPVITFVNTAGAYCGIGAEERGEGEAIAQNLLEMSDLKVPIISVIIGEGGSGGALALAVADEVWMLEHTIYAVLSPEGFASILWKDGSRAKEAAELMKITATELKELAIVDKVIPEVMNGQPLEQAKINRMLQKAFISKLTELAKLDTETLLEKRYQRFRKYEGHHHHHH | soluble
MDKFRVYGQSRLSGSVNISGAKNAALPILFAAILATEPVKLTNVPELKDIETTLKILRQLGVVVDRDATGAVLLDASNINHFTAPYELVKTMRASIWALAPLVARFHQGQVSLPGGCSIGARPVDLHISGLEKLGADIVLEEGYVKAQVSDRLVGTRIVIEKVSVGATLSIMMAATLAKGTTVIENAAREPEIVDTADFLNKMGAKITGAGSAHITIEGVERLTGCEHSVVPDRIETGTFLIAAAISGGCVVCQNTKADTLDAVIDKLREAGAQVDVTENSITLDMLGNRPKAVNIRTAPHPGFPTDMQAQFTLLNMVAEGTSIITETIFENRFMHIPELIRMGGKAEIEGNTAVCHGVEQLSGTEVIATDLRASISLVLAGCIATGETIVDRIYHIDRGYEHIEDKLRGLGAKIERFSGSDEA | soluble
MAHHHHHHMKRFFKSDGTPYNRDAANNLYGSEHTHRGGVEALSEGVAAGQYGEHKPRAIMFVNKRPVEIIPQEENLLEVLEREGIRVPKFCYHPILSVAGNCRMCLVQVDGTQNLVVSCATVALPGMSIITDSRLVRDAREGNVELILINHPNDCPICEQATNCDLQNVSMNYGTDIPRYKEDKRAVQDFYFDPQTRVVLNRCIHCTRCVRFLNEHAQDFNLGMIGRGGLSEISTFLDELEVKTDNNMPVSQLCPVGKIYLGDADENNLIAEQLDVSYESECGDRGTVTLGK | not soluble
GPGSMDYNLEYSEEQREYLERVGMREYLETFVAEVVRQKPNDIYAFLHDWASAHCQKQTKMTPTEASIKIQCAQRQNLAIKEMRSRQRKVNELLEQEETERVGKVEMEG | soluble
MRTTYREHLDAFAQDLITMCDTVAAVVEGASTGLLEGSLQSAQHALSLSDELDEVKNRATKRAVQLLSLEAPVARDLRQIVSSIYIIEDFDRMASLAMHIASMARRRHPDLVVPEPIRGYFHEMARLCTEMSDKTRSVLVDPDADVAIVLAADDDAIDDIHEHIMTLLTKKEWPFSTRAAVEVTLLARYYERFADHTVNVAAQIVYLTTGLMPEEYKKKRDDGFEPDEMEARFAQLEEQFANYDWPKPAD | not soluble
GSPEFMIGEEVPSDQYYWAPLAQHERGSLASLDSLRKGGPPPPNWRQPELPEVIAMLGFRLDAVKSNAAAYLQHLCYRNDKVKTDVRKLKGIPVLVGLLDHPKKEVHLGACGALKNISFGRDQDNKIAIKNCDGVPALVRLLRKARDMDLTEVITGTLWNLSSHDSIKMEIVDHALHALTDEVIIPHSGWEREPNEDCKPRHIEWESVLTNTAGCLRNVSSERSEARRKLRECDGLVDALIFIVQAEIGQKDSDSKLVENCVCLLRNLSYQVHREIPQAERYQEAAPNVANNTGTSPARGYELLFQPEVVRIYISLLKESKTPAILEASAGAIQNLCAGRWTYGRYIRSALRQEKALSAIADLLTNEHERVVKAASGALRNLAVDARNKELIGKHAIPNLVKNLPGGQQNSSWNFSEDTVISILNTINEVIAENLEAAKKLRETQGIEKLVLINKSGNRSEKEVRAAALVLQTIWGYKELRKPLEKEGWKKSDFQVNLNNASRSQSSHSYDDSTLPLIDRNQKSDKKPDREEIQMSNMGSNTKSLDNNYSTPNERGDHNRTLDRSGDLGDMEPLKGTTPLMQKI | soluble
